From patent publication US20250257143A1

Target: beta gamma receptor (CD122/CD132) for IL2 and IL15 on a reporter cell line (UniProt P14784)
Sequence (P14784 27-551 limits assumed, chain 1 of 2): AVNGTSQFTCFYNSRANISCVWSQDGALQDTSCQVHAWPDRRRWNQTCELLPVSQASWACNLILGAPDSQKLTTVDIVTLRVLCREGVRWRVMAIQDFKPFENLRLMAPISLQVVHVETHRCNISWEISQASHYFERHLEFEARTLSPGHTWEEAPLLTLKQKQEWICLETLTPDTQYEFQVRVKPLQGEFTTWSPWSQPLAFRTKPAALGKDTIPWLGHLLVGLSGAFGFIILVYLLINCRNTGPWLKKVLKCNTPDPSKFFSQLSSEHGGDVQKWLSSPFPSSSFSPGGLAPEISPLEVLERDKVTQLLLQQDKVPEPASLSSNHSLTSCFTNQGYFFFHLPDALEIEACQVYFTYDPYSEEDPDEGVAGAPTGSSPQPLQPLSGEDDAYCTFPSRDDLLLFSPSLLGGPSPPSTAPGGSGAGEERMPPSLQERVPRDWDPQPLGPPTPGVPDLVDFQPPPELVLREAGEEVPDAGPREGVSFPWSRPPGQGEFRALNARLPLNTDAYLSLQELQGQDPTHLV
Sequence (P31785 23-369 limits assumed, chain 2 of 2, further chain): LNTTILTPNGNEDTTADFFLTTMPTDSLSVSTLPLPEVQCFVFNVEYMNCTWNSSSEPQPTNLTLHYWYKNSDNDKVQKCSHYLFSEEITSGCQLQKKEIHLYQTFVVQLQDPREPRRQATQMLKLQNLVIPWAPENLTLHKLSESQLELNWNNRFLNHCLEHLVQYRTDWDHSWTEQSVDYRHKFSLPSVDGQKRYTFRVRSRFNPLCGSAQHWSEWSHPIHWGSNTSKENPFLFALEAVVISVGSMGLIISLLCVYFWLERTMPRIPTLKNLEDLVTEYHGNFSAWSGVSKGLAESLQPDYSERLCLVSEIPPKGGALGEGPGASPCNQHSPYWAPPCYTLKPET

anti-human CD122 antibody Clone TU27 (BioLegend, Catalog #339015)
IC50, inhibition of the IL2 (12.5 ng/mL)-driven luciferase signal (RLUs) in βγ-receptor reporter cells: 0.0757 µg/mL
IC50, inhibition of the IL15 (6 ng/mL)-driven luciferase signal (RLUs) in βγ-receptor reporter cells: 0.6 µg/mL
